“And” between values parts separate entries of the source, which are not always exact repeats. Identical values can stand only once.
T1: Active cyno KLK5 (cynomolgus monkey, UniProt Q9Y337 67-293 (human entry))
T1 chain: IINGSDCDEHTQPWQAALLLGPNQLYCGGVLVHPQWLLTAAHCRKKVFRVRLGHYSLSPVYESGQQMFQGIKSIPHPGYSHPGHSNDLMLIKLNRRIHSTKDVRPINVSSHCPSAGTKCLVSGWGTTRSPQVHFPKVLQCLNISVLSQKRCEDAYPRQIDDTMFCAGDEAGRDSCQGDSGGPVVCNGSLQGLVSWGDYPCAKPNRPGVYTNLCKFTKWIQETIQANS


How the values were obtained:
Active human KLK5 [1] = target: T2, Active human KLK5 (human, UniProt Q9Y337 67-293); assay: SPR, Biacore T200; LEKTI D5 Fab fusion immobilised on CM5 chip, human KLK5 injected 0.32-32 nM, single cycle kinetics, 1:1 model; human KLK5 alone, no antibody 10236; LEKTI D5 Fab fusion immobilised on the chip
T2 construct: glycosylated; also called Hu KLK5; KLK5 analyte (prepared in house)
Description: (§1) Kinetic measurements for the binding of LEKTI D5 Fab fusion protein to human KLK5 were obtained using a Biacore T200 (GE Life Sciences™). To prepare the surface, CM5 chips (GE Life Sciences™) were first activated with a 5-minute injection (30 μL min⁻¹) of a mixture of EDC/NHS (GE Life Sciences™) followed by injection of 100 μg mL⁻¹ LEKTI D5 Fab fusion (UCB) in acetate buffer, pH 5.0 (GE Life Sciences™) to achieve 80 RU immobilised LEKTI D5 Fab fusion on the chip surface. Finally, an injection of 1 M Ethanolamine hydrochloride-NaOH pH 8.5 was utilised to deactivate the surface. Increasing concentrations of human KLK5 from 0.32 to 32 nM in HBS-EP buffer (GE Life Sciences™) were then injected in the single cycle kinetics mode. Values resulting from buffer only injections were subtracted from those obtained for the KLK5 injections and kinetics determined by fitting to a 1:1 binding model in BIAcore evaluation software (GE Life Sciences™)
(§2) As reference, LEKTI D5 Fab fusion protein was immobilised to the chip surface prior to monitoring the interaction with human KLK5.

Active human KLK5 [2] = target: T2, Active human KLK5; assay: SPR, Biacore; rabbit antibody 10236 captured on anti-rabbit Fc and saturated with 20 nM human KLK5, LEKTI D5 Fab fusion injected 30 pM-100 nM, 1:1 model; KLK5 in complex with 10236
Description: 20 nM of human KLK5 was then injected until the surface reached saturation. LEKTI D5 Fab fusion protein (generated as described in example 1) was then injected at concentrations between 30 pM and 100 nM. Values from buffer only injections were first subtracted from those obtained with the analytes before fitting to a 1:1 binding kinetic model in Biacore™ evaluation software (GE Life Sciences™)

Active human KLK5 [3] = target: T2, Active human KLK5; assay: SPR; antibody 10236 gL6gH12 captured on anti-human Fc and loaded with human KLK5, LEKTI D5 Fab fusion injected, 1:1 model; KLK5 in complex with 10236 gL6gH12; KLK5 already in complex with antibody 10236 gL6gH12
Description: (§3) The experimental conditions described in example 5 were used with the exception that an anti-human Fc chip surface was prepared, and the results are reported in Table 6.

Active human KLK5 [4] = target: T2, Active human KLK5; assay: SPR; LEKTI D5 Fab fusion immobilised, human KLK5 injected; reference row, same values as Table 4A
Description: as §1, §2

Active human KLK5 [5] = target: T2, Active human KLK5; assay: SPR; antibody 10236 gL6gH12 captured on anti-human Fc and loaded with human KLK5, LEKTI D5 Fab fusion injected, 1:1 model; KLK5 in complex with 10236 gL6gH12
Description: as §3

Active human KLK5 [6] = target: T2, Active human KLK5; assay: SPR, Biacore T200; LEKTI D5 Fab fusion immobilised on CM5 chip, human KLK5 injected 0.32-32 nM, single cycle kinetics, 1:1 model
Description: as §1, §2

Active human KLK5 [7] = target: T2, Active human KLK5; assay: SPR, Biacore T200, 25 C; reference 10236gL6gH12
Description: (§4) A goat anti-human IgG Fc specific antibody (Jackson ImmunoResearch) was immobilized on a CM5 Sensor Chip via amine coupling chemistry to a level of approximately 6000RU. Each analysis cycle consisted of capture of the anti-KLK5 IgG molecules to the anti Fc surface, injection of KLK5 analyte (prepared in house) for 300 s at 30 μl/min followed by 600 s dissociation. At the end of each cycle the surface was regenerated at a flowrate of 10 μL/min using a 60 s injection of 50 mM HCl followed by a 30 s injection of 5 mM NaOH and a final 60 s injection of 50 mM HCl. Human KLK5 was titrated from 20 nM to 0.03 nM (6×3-fold serial dilutions) in HBS-EP+ running buffer (GE Healthcare) supplemented to a final concentration of 300 mM NaCl. Buffer blank injections were included to subtract instrument noise and drift. Kinetic parameters were determined using a 1:1 binding model using Biacore T200 Evaluation software (version 3.0).

Active human KLK5 [8] = target: T2, Active human KLK5; assay: SPR, Biacore T200, 25 C; IgG captured on anti-human Fc, human KLK5 as analyte (20-0.03 nM), 1:1 model
Description: The kinetics of binding of both antibodies 10236gL6gH12 and 10236gL6-N94DgH12 to human KLK5 were assessed by surface plasmon resonance (Biacore T200, GE Life Sciences™) at 25° C. to assess the impact of 100% deamidation.
as §4

Active cyno KLK5 = target: T1, Active cyno KLK5; assay: cell-based or functional assay
Active human KLK5 [9] = target: T2, Active human KLK5; assay: SPR; average of the 2 runs of Table 15
Active human KLK5 [10] = target: T2, Active human KLK5; assay: SPR, Biacore T200, 25 C; IgG from supernatant captured on anti-human Fc, human KLK5 as analyte (20-0.08 nM), 1:1 model
Description: A goat anti-human IgG Fc specific antibody (Jackson ImmunoResearch) was immobilized on a CM5 Sensor Chip via amine coupling chemistry to a level of approximately 6000RU. Each analysis cycle consisted of capture of the anti-KLK5 IgG from supernatants to the anti Fc surface, injection of KLK5 analyte (prepared in house) for 180 s at 30 μl/min followed by 600 s dissociation. At the end of each cycle the surface was regenerated at a flowrate of 10 μL/min using a 60 s injection of 50 mM HCl followed by a 30 s injection of 5 mM NaOH and a final 60 s injection of 50 mM HCl. Human KLK5 was titrated from 20 nM to 0.08 nM (5×3-fold serial dilutions) for the supernatant in HBS-EP+ running buffer (GE Healthcare®) supplemented to a final concentration of 300 mM NaCl. Buffer blank injections were included to subtract instrument noise and drift. Kinetic parameters were determined using a 1:1 binding model using Biacore T200 Evaluation software (version 3.0). Experiments were carried out at 25° C.

| Kd (Active human KLK5 [1]) [pM] | Kd (Active human KLK5 [2]) [pM] | koff (Active human KLK5 [2]) [s⁻¹] | kon (Active human KLK5 [2]) [M⁻¹ s⁻¹] | Kd (Active human KLK5 [3]) [pM] | koff (Active human KLK5 [4]) [s⁻¹] | kon (Active human KLK5 [4]) [M⁻¹ s⁻¹] | koff (Active human KLK5 [5]) [s⁻¹] | koff (Active human KLK5 [6]) [s⁻¹] | kon (Active human KLK5 [6]) [M⁻¹ s⁻¹] | fold decrease of affinity against 10236gL6gH12 (Active human KLK5 [7]) [fold] | Kd (Active human KLK5 [8]) | koff (Active human KLK5 [8]) | kon (Active human KLK5 [8]) | IC50 (read off the curve) (Active cyno KLK5) [pM] | Kd (Active human KLK5 [9]) [pM] | Kd (Active human KLK5 [10]) [pM] | koff (Active human KLK5 [10]) [s⁻¹] | kon (Active human KLK5 [10]) [M⁻¹ s⁻¹] | Binder |
| --- | --- | --- | --- | --- | --- | --- | --- | --- | --- | --- | --- | --- | --- | --- | --- | --- | --- | --- | --- |
| 40 | 120000 | 0.0073 | 59000 | 540000 | 2.3e-05 | 570000 | 0.0016 | 2.3e-05 | 570000 | – | – | – | – | – | – | – | – | – | LEKTI D5 Fab fusion protein (other, the Fab itself is specific for albumin; also called Human LEKTI D5 Fab fusion protein) heavy: EVQLLESGGGLVQPGGSLRLSCAVSGIDLSNYAINWVRQAPGKGLEWIGIIWASGTTFYATWAKGRFTISRDNSGGGGSGGGGSREIVKLCSQYQNQAKNGILFCTRENDPIRGPDGKMHGNLCSMCQAYFQAENEEKKKAEARARSGGGGGGGGSKNTVYLQMNSLRAEDTAVYYCARTVPGYSTAPYFDLWGQGTLVTVSSASTKGPSVFPLAPSSKSTSGGTAALGCLVKDYFPEPVTVSWNSGALTSGVHTFPAVLQSSGLYSLSSVVTVPSSSLGTQTYICNVNHKPSNTKVDKKVEPKSCHHHHHHHHHH light: DIQMTQSPSSVSASVGDRVTITCQSSPSVWSNFLSWYQQKPGKAPKLLIYEASKLTSGVPSRFSGSGSGTDFTLTISSLQPEDFATYYCGGGYSSISDTTFGGGTKVEIKRTVAAPSVFIFPPSDEQLKSGTASVVCLLNNFYPREAKVQWKVDNALQSGNSQESVTEQDSKDSTYSLSSTLTLSKADYEKHKVYACEVTHQGLSSPVTKSFNRGEC |
| – | – | – | – | – | – | – | – | – | – | 4.5 | 1250 pM | 0.00486 s⁻¹ | 3.89e+06 M⁻¹ s⁻¹ | – | – | – | – | – | Antibody 10236 gL6-N94DgH12 (IgG4P) (antibody, V domains shown, surrogate for the fully deamidated product of 10236gL6gH12) VH: EVQLQESGPGLVKPSGTLSLTCAVSGFPLSNYAMSWVRQPPGKGLEWIGDIYPSDIIDYASWAKGRVTISQDSSKNQVSLKLSSVTAADTAVYYCARDNNDYGLDIWGQGTLVTVSS VL: AYDMTQSPSSLSASVGDRVTITCQASQSISSWLAWYQQKPGKAPKLLIYLASTLASGVPSRFSGSGSGTDFTLTISSLQPEDFATYYCQQGYTDSNIINTFGGGTKVEIKR |
| – | – | – | – | – | – | – | – | – | – | – | 314 pM and 283 pM | 0.000711 s⁻¹ and 0.000658 s⁻¹ | 2.26e+06 M⁻¹ s⁻¹ and 2.33e+06 M⁻¹ s⁻¹ | ~100 | 299 | 324 | 0.00066 | 2.04e+06 | Humanized antibody 10236 gL6gH12 (antibody, V domains shown, also called Ab10236gL6gH12) VH: EVQLQESGPGLVKPSGTLSLTCAVSGFPLSNYAMSWVRQPPGKGLEWIGDIYPSDIIDYASWAKGRVTISQDSSKNQVSLKLSSVTAADTAVYYCARDNNDYGLDIWGQGTLVTVSS VL: AYDMTQSPSSLSASVGDRVTITCQASQSISSWLAWYQQKPGKAPKLLIYLASTLASGVPSRFSGSGSGTDFTLTISSLQPEDFATYYCQQGYTNSNIINTFGGGTKVEIKR |
